From patent US20100291070A1

Biological target: PA1698 protein on Pseudomonas aeruginosa PA103 strain cells (Pseudomonas aeruginosa (PA103 strain))
Test: whole cell ELISA on immobilised P. aeruginosa PA103, 50 ug/well

absorbance at 450 nm: 0.084
Substance: negative control IgG fraction purified from control rat sera obtained by administering only adjuvant (antibody)
